assay: soluble on expression in E. coli; label from the status in PepcDB or PDB records

Row | Sequence | soluble on expression in E. coli
1 | MSTKEKKTKKPHNVKSSVVPPKKWKTKKKDKKGTGKLRKTASNASLKKHGSTHKIKKPEDITSDGCPLLLTASDTCANIYAEQLSAPNNLSAKTSTPHKSIEAALTPVAFSPPPATQATQAMDAPATTKTAVKPTKWKAEDVAVAYIQKLDPGVIRAEYIEACAATKVNIDKDCQLWKKNLQMNQADNYPILDSTIVKNPAQPDSYVNMSSVIVPHCRYPILMAQMPKRGFEEEFWRAAFNESVVIMYVLMGTEDEKNDFFPTTMGAYVYYGAMFVNIRKVEKMDEERTRYTIEVLPNGFSNSVMMNVYVHTGWEASGVPVRYANTTRSVVDVMNFVKTSSGTEKMLVVSKNGCGRAGFFLSLGAAFCCLNDNSEPRIGEIVKAIRSQRPNAVDSIKQYASIYLCFVYYIKKKITIPEGMQQKFDDLKKGIEAIIREDLSIMY | not soluble
2 | MSTLAQLLDTKRTALAAELAGFIDRSVSQSSGISGVALKGAVAAAKKVRPDIVTKGAERLLPEVVEVLDPYWASFEASDSTHFGEFLEQHKSEVSDKILEVADRNAEKVDMPALKKAYGSLRGKAASFIEPNLPGLGQIMQNYMK | not soluble
3 | MSTNLNIEVSINLTEIDVNAQLAEFARFQQVRDDSRYAQDVEREFVLGPIRHHRRQLEPSRSAPLASTEQPVAQATTHPSTENARVPALVLRSGSWRALPVAQGGSSHIRIWPVSRSATTTSTATRHPPFTNTSASTSFAPYQRHRGSALQTSECTICFEKPVDPRGCPKCLKVIGCKKCVKKWFDTSASKACPLCRFEWKLHRDNPDVVKISTLEVLKRQKQNRP | not soluble
4 | MSTPHINVIGAGLAGSEAAWQIAERGIAVHLYEMRPVKQTPAHHTDKFAELVCSNSLRGNSLTNAVGVLKEEMRRLNSVIIRSADRCSVPAGGALAVDRHEFAQAVTEAVREHPNVTVFTEEIQKIPDGPTVIATGPLTSKALSEQLKQLTGEEYLYFYDAAAPIIETDSINMDKVYLKSRYDKGEAAYLNCPMTEEEFDRFYEALISAETVPLKEFEKEVFFEGCMPVEVMAKRGKKTLLFGPMKPVGLEDPKTGKRPYAVVQLRRDNQSGTLYNIVGFQTHLKWGPQKEVIQLIPGLENAEIVRYGVMHRNTFINSPNLLKPTYQYKKRKDLFFAGQITGVEGYVESAAAGLVAGLNAARLVQSKELVVFPDTTMLGSMANYITTANSKNFQPMNANFGLLPPLDTRIKDKKTRYETLAGRALESIQNFVKKMLEHHHHHH | soluble
5 | MSTPTAADRAKALERKNEGNVFVKEKHFLKAIEKYTEAIDLDSTQSIYFSNRAFAHFKVDNFQSALNDCDEAIKLDPKNIKAYHRRALSCMALLEFKKARKDLNVLLKAKPNDPAATKALLTCDRFIREERFRKAIGGAENEAKISLCQTLNLSSFDANADLANYEGPKLEFEQLYDDKNAFKGAKIKNMSQEFISKMVNDLFLKGKYLPKKYVAAIISHADTLFRQEPSMVELENNSTPDVKISVCGDTHGQFYDVLNLFRKFGKVGPKHTYLFNGDFVDRGSWSCEVALLFYCLKILHPNNFFLNRGNHESDNMNKIYGFEDECKYKYSQRIFNMFAQSFESLPLATLINNDYLVMHGGLPSDPSATLSDFKNIDRFAQPPRDGAFMELLWADPQEANGMGPSQRGLGHAFGPDITDRFLRNNKLRKIFRSHELRMGGVQFEQKGKLMTVFSAPNYCDSQGNLGGVIHVVPGHGILQAGRNDDQNLIIETFEAVEHPDIKPMAYSNGGFGL | soluble
6 | MSTSSRTPSPSSLSACGGPSSSTTTAHPSSSPKSKTSVTSSRSDTDSVIPEHKPSSASSFSIGRLLFRSSGSSNSTKRDSVDSGKDDETGRSPATSRPGSPNPGGDKSPQMSTSRRLAGFASRSIRKSQWRLFKHRTFFGSQRSSMKKNQLQLPRLTLRHPSIDSSAMPLQLDVDENASGEGSDDFLQIRRSTQRRWTDSDTTGRLRDSRDSSDFNDSHDTLDIAGTSAHGVADSSSHHHHNYSMTAPVSPNVPLSASSSHSEGWKYSSQKLLWKLKPKYAYSHASSTSSSTDSAWKSLDSMTWRSVDGAEVVLRGARLENLSEIERSALQLLAAQRLTKMLPGVNLGKPKALRQKRQKLVKSNRTPTVADVQRRASGTPMPEEKRVFGVSLAMCMLNEKRLDQESRCRSLDDSTVIMLNKSKAKPTKSEPEMMSHTMPEDRKWLYPSTQNLYPTSTSNPSSPSPIMGSAPPTGSILPSANLLSAEPTTCEPQQVTGRFLKKQRPASASFSCSLDANIDDVDPHALQVPKIVENCTQYLMTYGLTQVGLFRVAGNTKRCRQLRNALEKVGGGAVINDNMVENTTSHDVATLLKEYFRDLPQSLLPGEHYSAYIGAAKLNVDERIEAIRLLFALLVSPILDTLFVLLKFLHEVSCHSQDRHDEDGELLSGNKMDARNLATIFAPSILRVDHDKLHETLAENEHQVIIVETMISNVEEIFKIPKELQCKIYTKLRETEPDRLDRILNHLSKMDSHESHPGVLLSPFPATLEEDSSPRHHRHGDHSHIGRQSPLARELTTNGKVKVQSQRSGSWPFSLTKTQTSPSRPEGQHFFPADSQDGPGPSHSHHDPSTSGTTMSATTTPGPGRKTDFSMKAADDSGRDSEFCSDELTFGTISQPETARERSVTMSTACGSPSTSNSKKTPMMASLQGATTSKSVDARSPSRERVDIRSAARSSAAAARRRLRNVVRAFRFTSMTRSTPDIAQSS | not soluble
7 | MSVASETNWKKLDEKIAISGQISVDDVAAIAAAGYKSIICNRPDGEGGEHQPGSTELEEAAKAAGLQFAYLPVEIGQVSDEKCSAFHQLMATLPGPVLAFCNSGNRARALYSRDVGTTTTPAETISAACDWEHEAAAVTEAESEAAGAAAVSAASSRDEAAGKSIPVTPACNWDNAFDIVVVGGGSAGLGVTASLLRRRSSLRIAIIEPNDKHYYQPAWTLVGGGAYAVDQTVRNTADVIPHGAEWIKAEVSGFSPNDNLVHLADGRTIGYQQLIVCPGIRLAWEKIEGIQETLGKNGVTSNYLFDLAPYTWSLTQQLKGGKALFTQPPMPIKCAGAPQKAMYLSCDYWQRQGVLDKIEVEFDSAGAVLFGVADFVPPLMEYVRKYHANLVFNSNLVKVNGPEKIATFEIKNEAGEVTRVDKPFDMLHVTPPQAAPDFLRDSPLADASGYCEVNPKTLQHTRFANIFSLGDACSSPNTKTAAAVRKQIVIVAENLLAAKDGREFHAVYDGYGACPLTVENGKVVLAEFGFGGKLLPTFPLNPAVARKLYWWFKVKLFPWLYWEGMLKGREWLTRSTETKLEHHHHHH | soluble
8 | MSVEFQFQALVEDTPNEKWKAIFQQLWPGYRAWFLRSGVTGRPTYLECRQALRTYMPELVPLWEQLIELTGGGDVESRFLSLWCPPPYIAGCSQGVWFDPKGQEEPILLRNYDFAPVLLEGNLLNTRWLDQRVIAMSDCLWGALDGVNEAGLSASLSFGGRTVTGTGFGIPLVLRYILELAHTTQDAVNILKRIPVHMTYSVTLLDRKGEWNTVFVSPDRQPEVVKRHAVTNYQNAIEWPQHATATHSAERLTFLEQVLHHATNSHEVLQGLLTKPLYQDAWLRGYGTLYSAIYRPLSQKVEICWPHDYSQQSFEHFTEEQKLILLSVELEHHHHHH | not soluble
9 | MSVEIESIEHELEESIASLRQAGVRITPQRQAILRYLISSHTHPTADEIYQALSPDFPNISVATIYNNLRVFKDIGIVKELTYGDSSSRFDFNTHNHYHIICEQCGKIVDFQYPQLNEIERLAQHMTDFDVTHHRMEIYGVCKECQDK | not soluble

Reference: the DeepSol protein solubility set
